Tests used:
Experiment in all cases: SPR
[1] = tested on: hemagglutinin (HA) of AIV H5N1, purified (Influenza A virus H5N1); details: PBS 10 mM pH 7.4, temperature not stated; cited from earlier work
[2] = tested on: inactivated AIV H5N2 whole virus (Influenza A virus H5N2); details: biotin, PBS 10 mM pH 7.4, temperature not stated
[3] = tested on: AIV H5N9 whole virus (Influenza A virus H5N9); details: biotin, PBS 10 mM pH 7.4, temperature not stated
[4] = tested on: inactivated AIV H2N2 whole virus (Influenza A virus H2N2); details: biotin, PBS 10 mM pH 7.4, temperature not stated
[5] = tested on: inactivated AIV H7N2 whole virus (Influenza A virus H7N2); details: biotin, PBS 10 mM pH 7.4, temperature not stated
[6] = tested on: inactivated AIV H9N2 whole virus (Influenza A virus H9N2); details: biotin, PBS 10 mM pH 7.4, temperature not stated
[7] = tested on: inactivated AIV H1N1 whole virus (Influenza A virus H1N1); details: biotin, PBS 10 mM pH 7.4, temperature not stated
[8] = tested on: inactivated AIV H5N1 whole virus (HA on virion) (Influenza A virus H5N1); details: biotin, PBS 10 mM pH 7.4, temperature not stated

Row | Sequence | Kd [1] [nM] | binding signal [2] [RI 10^-6] | binding signal [3] [RI 10^-6] | binding signal [4] [RI 10^-6] | binding signal [5] [RI 10^-6] | binding signal [6] [RI 10^-6] | binding signal [7] [RI 10^-6] | binding signal [8] [RI 10^-6]
1 | GTGTGCATGGATAGCACGTAACGGTGTAGTAGATACGTGCGGGTAGGAAGAAAGGGAAATAGTTGTCCTGTTG [H5N1 DNA aptamer, best candidate (previous study)] | 4.65 |  |  |  |  |  |  | 
2 | GTGTGCATGGATAGCACGTAACGGTGTAGTAGATACGTGCGGGTAGGAAGAAAGGGAAATAGTTGTCCTGTTG [H5N1 DNA aptamer, biotinylated (sensor)] |  | 10 | 3 | -1 | 7 | 2 | -4 | 262
